The source of these data is patent US12529083B2, “CYP76AD1-beta clade polynucleotides, polypeptides, and methods for producing betalains” (YEDA RESEARCH AND DEVELOPMENT CO. LTD., priority 2015, dated 2026).

The test system of the assay is tyrosine hydroxylation to L-DOPA. Nature of the assay: Transient expression in N. benthamiana leaves, LC-MS detection of L-DOPA. The assay is classed as in vivo, Nicotiana benthamiana. Particulars: vector or gene infiltrated without BvDODA1, LC-MS. As to the method:
In all cases, agrobacteria were grown overnight in LB media and brought to a final O.D.600 0.2 in infiltration buffer. When co-infiltrated, agrobacteria carrying separate constructs were each brought to O.D.600 0.2 and mixed in a 1:1 ratio before infiltration. Tissues used for subsequent LC-MS analysis were sampled from leaves 7 days post infiltration. For LC-MS analysis of L-DOPA and betalains, 3-4 biological replicates for each experiment were sampled, each consisting of infiltrated tissues from 2-3 different leaves. For L-DOPA analysis, samples were extracted as described above and analyzed using a UPLC/PDA-MSMS instrument, where a UPLC separation module (Waters Acquity) was connected to a photodiode array detector (Waters Acquity 2996, 190-800 nm), and (on-line) to a triple quadrupole MS detector (Waters Xevo TQ MS), equipped with an ESI source. […] Samples were analyzed in positive ionization mode, using the following settings: capillary—2 kV, cone—26 eV, with two transitions 198.1>152.1 (collision—15 eV) and 198.1>181.1 (collision—10 eV) used for compound assignment. […]

B1: CYP76AD15: Mirabilis jalapa cytochrome P450, functional ortholog of CYP76AD6, catalyzing formation of L-DOPA from tyrosine (SEQ ID NO: 44) (protein, listed as Mirabilis jalapa)
chain: MENTMLGVILATIFLTFHIMKMLFSPSKVKLPPGPRPLPIIGNILELGDKPHRSFANLAKIHGPLVTLKLGSVTTIVVSSSEVAKEMFLKNDQPLANRTIPDSVRAGNHDKLSMSWLPVSPKWRNLRKISAVQLLSTQRLDASQAHRQAKIKQLIEYVKKCSKIGQYVDIGQVAFTTSLNLLSNTFFSKELASFDSDNAQEFKQLMWCIMEEIGRPNYADYFPILGYVDPFGARRRLSRYFDQLIEVFQVIIRERLTHDNNIVGNNNDVLATLLDLYKQNELTMDEINHLLVDIFDAGTDTTASTLEWAMSELIKNPHIMAKAQEEVRRATMSHGGATVAEIQESDINNLPYIQSIIKETLRLHPPTVFLLPRKADVDVQLFGYVVPKNAQVLVNLWAIGRDPNVWPDPEVFSPERFMDCEIDVKGRDFELLPFGAGRRICPGLSLAYRMLNLMLANMVHSFDWKLPGVENGSGSEMDSLDMDEKFGITLQKVQPLKVIPVSRK
As for B1, the L-DOPA production result is “L-DOPA production when infiltrated alone”.
